Data reported in article PMC10354202.

T1: (Ig32)2-(R3^IVVI)-(Ig32)2 polyprotein, talin R3 domain with the IVVI mutation
T1 chain: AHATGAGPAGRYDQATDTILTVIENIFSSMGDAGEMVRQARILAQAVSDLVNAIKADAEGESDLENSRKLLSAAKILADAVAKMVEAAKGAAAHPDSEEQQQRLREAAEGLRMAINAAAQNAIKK


Target: T1, (Ig32)2-(R3^IVVI)-(Ig32)2 polyprotein, …
Test: magnetic tweezers
Conditions: chain shown with the change; for other: average unbinding time at 40 pN: parent: est. 9 s, read off a plot

| Binder | other: unbinding time (tUb) at 40 pN, peak of square-root histogram | other: average unbinding time at 40 pN |
| --- | --- | --- |
| full-length human vinculin, wild type, P18206-2 K944A; R945A; D1013A; E1015A; E986A (protein) MPVFHTRTIESILEPVAQQISHLVIMHEEGEVDGKAIPDLTAPVAAVQAAVSNLVRVGKETVQTTEDQILKRDMPPAFIKVENACTKLVQAAQMLQSDPYSVPARDYLIDGSRGILSGTSDLLLTFDEAEVRKIIRVCKGILEYLTVAEVVETMEDLVTYTKNLGPGMTKMAKMIDERQQELTHQEHRVMLVNSMNTVKELLPVLISAMKIFVTTKNSKNQGIEEALKNRNFTVEKMSAEINEIIRVLQLTSWDEDAWASKDTEAMKRALASIDSKLNQAKGWLRDPSASPGDAGEQAIRQILDEAGKVGELCAGKERREILGTCKMLGQMTDQVADLRARGQGSSPVAMQKAQQVSQGLDVLTAKVENAARKLEAMTNSKQSIAKKIDAAQNWLADPNGGPEGEEQIRGALAEARKIAELCDDPKERDDILRSLGEISALTSKLADLRRQGKGDSPEARALAKQVATALQNLQTKTNRAVANSRPAKAAVHLEGKIEQAQRWIDNPTVDDRGVGQAAIRGLVAEGHRLANVMMGPYRQDLLAKCDRVDQLTAQLADLAARGEGESPQARALASQLQDSLKDLKARMQEAMTQEVSDVFSDTTTPIKLLAVAATAPPDAPNREEVFDERAANFENHSGKLGATAEKAAAVGTANKSTVEGIQASVKTARELTPQVVSAARILLRNPGNQAAYEHFETMKNQWIDNVEKMTGLVDEAIDTKSLLDASEEAIKKDLDKCKVAMANIQPQMLVAGATSIARRANRILLVAKREVENSEDPKFREAVKAASDELSKTISPMVMDAKAVAGNISDPGLQKSFLDSGYRILGAVAKVREAFQPQEPDFPPPPPDLEQLRLTDELAPPKPPLPEGEVPPPRPPPPEEKDEEFPEQKAGEVINQPMMMAARQLHDEARKWSSKGNDIIAAAKRMALLMAEMSRLVRGGSGTAAALIQCAKDIAKASDEVTRLAKEVAKQCTDKRIRTNLLQVCARIPTISTQLKILSTVKATMLGRTNISAEASEQATEMLVHNAQNLMQSVKETVREAEAASIKIRTDAGFTLRWVRKTPWYQ | 3.4 s | 18 s |
| full-length human vinculin, wild type, P18206-2 K944A; R945A; D1013A; E1015A (protein) MPVFHTRTIESILEPVAQQISHLVIMHEEGEVDGKAIPDLTAPVAAVQAAVSNLVRVGKETVQTTEDQILKRDMPPAFIKVENACTKLVQAAQMLQSDPYSVPARDYLIDGSRGILSGTSDLLLTFDEAEVRKIIRVCKGILEYLTVAEVVETMEDLVTYTKNLGPGMTKMAKMIDERQQELTHQEHRVMLVNSMNTVKELLPVLISAMKIFVTTKNSKNQGIEEALKNRNFTVEKMSAEINEIIRVLQLTSWDEDAWASKDTEAMKRALASIDSKLNQAKGWLRDPSASPGDAGEQAIRQILDEAGKVGELCAGKERREILGTCKMLGQMTDQVADLRARGQGSSPVAMQKAQQVSQGLDVLTAKVENAARKLEAMTNSKQSIAKKIDAAQNWLADPNGGPEGEEQIRGALAEARKIAELCDDPKERDDILRSLGEISALTSKLADLRRQGKGDSPEARALAKQVATALQNLQTKTNRAVANSRPAKAAVHLEGKIEQAQRWIDNPTVDDRGVGQAAIRGLVAEGHRLANVMMGPYRQDLLAKCDRVDQLTAQLADLAARGEGESPQARALASQLQDSLKDLKARMQEAMTQEVSDVFSDTTTPIKLLAVAATAPPDAPNREEVFDERAANFENHSGKLGATAEKAAAVGTANKSTVEGIQASVKTARELTPQVVSAARILLRNPGNQAAYEHFETMKNQWIDNVEKMTGLVDEAIDTKSLLDASEEAIKKDLDKCKVAMANIQPQMLVAGATSIARRANRILLVAKREVENSEDPKFREAVKAASDELSKTISPMVMDAKAVAGNISDPGLQKSFLDSGYRILGAVAKVREAFQPQEPDFPPPPPDLEQLRLTDELAPPKPPLPEGEVPPPRPPPPEEKDEEFPEQKAGEVINQPMMMAARQLHDEARKWSSKGNDIIAAAKRMALLMAEMSRLVRGGSGTAAALIQCAKDIAKASDEVTRLAKEVAKQCTDKRIRTNLLQVCERIPTISTQLKILSTVKATMLGRTNISAEASEQATEMLVHNAQNLMQSVKETVREAEAASIKIRTDAGFTLRWVRKTPWYQ | 4 s | 27 s |
